The test addresses Taxol-stabilised microtubules of porcine brain tubulin (porcine) (UniProt P02550). The experiment in a line: co-sedimentation.

Chain of EB1 full-length (end-binding protein 1), wild type (Q15691 whole entry): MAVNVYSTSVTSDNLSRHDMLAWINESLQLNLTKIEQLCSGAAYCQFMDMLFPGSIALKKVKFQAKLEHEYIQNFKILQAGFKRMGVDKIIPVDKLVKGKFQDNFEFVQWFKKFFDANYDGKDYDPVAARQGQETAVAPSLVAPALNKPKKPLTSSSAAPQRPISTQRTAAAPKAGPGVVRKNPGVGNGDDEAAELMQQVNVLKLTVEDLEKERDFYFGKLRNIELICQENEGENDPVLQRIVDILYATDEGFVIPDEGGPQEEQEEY

As to “EB1 full-length (end-binding protein 1), wild type (from UniProt Q15691 1-268) (natural protein)”, the percent bound turned out to be 50%.

The record behind these values is publication PMC4834876.
